The EC50 is the concentration giving half of the maximal effect.

This is an account of results in US11369662B2 (The Medical College of Wisconsin, Inc., priority 2014, dated 2022).

The target in test [1] is T1, CXCR4 (Homo sapiens, UniProt P61073).
T1 construct: purchased Millipore
Description: CXCR4 ubiquitination assay in HEK293 cells stably expressing HA-CXCR4. The note with it: HEK293 HA-CXCR4 with FLAG-ubiquitin, 80 ng/ml, 30 min. In kind it is cell-based. The method, then: (§1) CXCR4 ubiquitination assays. HEK293 cells stably expressing HA-CXCR4 grown on 10-cm dishes were transfected with 3 μg FLAG-ubiquitin. The next day, cells were passaged onto 6-cm dishes and allowed to grow for an additional 24 h. […] Cells were then washed once on ice with cold PBS, and collected in 1 ml lysis buffer [50 mM Tris-Cl, pH 7.4, 150 mM NaCl, 5 mM EDTA, 0.5% (w/v) sodium deoxycholate, 1% (v/v) NP-40, 0.1% (w/v) SDS, 20 mM N-ethyCXCL121aleimide (NEM), and 10 μg/ml each of leupeptin, aprotinin, and pepstatin A]. Samples were transferred into microcentrifuge tubes and placed at 4° C. for 30 min, followed by sonification and centrifugation to pellet cellular debris. Clarified cell lysates were incubated with an anti-HA polyclonal and isotype control antibodies and the immunoprecipitates were analyzed by SDS-PAGE followed by immunoblotting using an anti-FLAG antibody conjugated to HRP.
as §1, with “Tris-CI,” for “Tris-Cl,”

The next test has as its system KG1a cells. As to the kind of experiment: Apoptosis assays in KG1a cells expressing CXCR4-YFP. The note with it: for cleavage of PARP: 100 ng/ml. In kind it is cell-based, human. The procedure:
Apoptosis assays. KG1a (human acute myelogenous leukemia) cells were assayed for CXCL12-dependent apoptosis as previously described. Briefly, CXCR4 expression on KG1a cells was achieved via transient transfection with a plasmid encoding a CXCR4-YFP fluorescent fusion protein. […] Apoptosis was assayed by staining cells with APC-conjugated annexin V to detect cell-surface phosphatidyl serine (BD Biosciences) or Alexaflour-647-conjugated antibody to detect cleaved PARP (BD Biosciences), and the percentage of YFP+ cells undergoing apoptosis was determined by flow cytometry.

Test [2] has as its target T1, CXCR4. As to the kind of experiment: Confocal microscopy of CXCR4 Ser324/Ser325 phosphorylation in HeLa cells. In kind it is cell-based. The note with it: HeLa cells with HA-CXCR4-YFP, 80 ng/ml, 15 min. The method, then: Connfocal microscopy. HeLa cells transiently transfected with HA-CXCR4-YFP were passaged onto poly-L-lysine coated coverslips and grown for 24 h. The next day, cells were washed once with warm DMEM containing 20 mM HEPES, pH 7.5, and incubated in the same medium for 3-4 h at 37° C. […] Cells were then fixed with PBS containing 3.7% paraformaldehyde, followed by permeabilization with 0.05% (w/v) saponin for 10 min, similar to a protocol we have described previously. Cells were then incubated with 1% goat serum in 0.05% saponin-PBS for 30 min at 37° C., followed by staining with […] monoclonal antibody that recognizes dually phosphorylated CXCR4 on serine residues 324 and 325 (clone 5E11) (1:50 dilution) for 1 h at 37° C. […] Samples were analyzed using an LSM 510 laser scanning confocal microscope (Carl Zeiss, Thornwood, N.Y.) equipped with a Plan-Apo 63×/1.4 oil lens objective. […] Acquired images were analyzed using ImageJ, version 1.41o software (National Institutes of Health, Bethesda, Md.) and Adobe Photoshop (CS4).
Confocal microscopy. […] Samples were analyzed using an LSM 510 laser scanning confocal microscope (Carl Zeiss, Thornwood, N.Y.) equipped with a Plan-Apo 63×/1.4 oil lens objective. […] Acquired images were analyzed using ImageJ, version 1.410 software (National Institutes of Health, Bethesda, Md.) and Adobe Photoshop (CS4).

The target of test [3] is T1, CXCR4. As to the kind of experiment: CXCR4 degradation assay in HeLa cells. In kind it is cell-based. The note with it: 80 ng/ml, 3 h, compared to vehicle. The method, then: CXCR4 degradation assay. HeLa cells grown on 6-cm dishes were washed once and incubated with DMEM containing 10% FBS and 50 μg/ml cyclohexamide for 15 min at 37° C. […] Cells were washed once and collected in 300 μl 2× sample buffer. Receptor levels were determined by SDS-PAGE followed by immunoblotting using an anti-CXCR4 antibody. Blots were stripped and reprobed for actin to assess loading. Receptor levels normalized to actin levels were determined by densitometric analysis.
CXCR4 degradation assay. HeLa cells grown on 6-cm dishes were washed once and incubated with DMEM containing 10% FBS and 50 μg/ml cyclohexamide for 15 min at 37° C. […] Cells were washed once and collected in 300 μl 2×sample buffer. Receptor levels were determined by SDS-PAGE followed by immunoblotting using an anti-CXCR4 antibody. Blots were stripped and reprobed for actin to assess loading. Receptor levels normalized to actin levels were determined by densitometric analysis.

T1 sequence (P61073 whole entry): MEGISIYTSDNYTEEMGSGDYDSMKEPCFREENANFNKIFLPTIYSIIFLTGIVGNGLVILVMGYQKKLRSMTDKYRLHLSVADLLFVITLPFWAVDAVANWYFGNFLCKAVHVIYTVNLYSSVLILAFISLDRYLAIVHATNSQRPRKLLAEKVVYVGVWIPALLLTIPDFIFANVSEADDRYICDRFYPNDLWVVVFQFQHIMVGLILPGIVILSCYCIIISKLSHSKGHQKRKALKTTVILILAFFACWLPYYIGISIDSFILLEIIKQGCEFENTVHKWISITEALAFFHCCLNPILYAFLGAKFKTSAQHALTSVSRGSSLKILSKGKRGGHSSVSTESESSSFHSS

Consider “CXCL12WT: wild type CXCL12 (stromal cell-derived factor-1/SDF-1), SEQ ID NO:1”, for which the CXCR4 ubiquitination result in the test with CXCR4 [1] is listed as “prompted ubiquitin”; with CXCR4 [1] (listed as CXCL12) it was “promoted ubiquitination of CXCR4”. In addition, in the test with KG1a cells, the “cleavage of PARP” value is “significantly greater than CXCL122”. In addition, the EC50 with KG1a cells (16-18 h, read-out: EC50 of increase in annexin V) was found to be 1.75 ± 0.6 nM. Also, the “staining for CXCR4 phosphorylated on Ser324 and Ser325” value in the test with CXCR4 [2] was “strong staining”. Further, in the test with CXCR4 [3], the CXCR4 degradation entry is “approximately 60%”.

“CXCL122: constitutively dimeric variant of CXCL12 containing L36C/A65C mutations”: the CXCR4 ubiquitination entry in the test with CXCR4 [1] is “failed to promote CXCR4 ubiquitination”. Besides, the “cleavage of PARP” value in the test with KG1a cells is on record as “enhanced the cleavage of PARP”. Besides, the “increase in annexin V” value in the test on KG1a cells (16-18 h) is “small but significant increase”. Besides, in the test with CXCR4 [2], the “staining for CXCR4 phosphorylated on Ser324 and Ser325” value was “weak staining similar to vehicle”. Besides, the CXCR4 degradation with CXCR4 [3] is reported as around 15%.
